Laboratory results: US20220177596A1 (Bristol-Myers Squibb, published 2022)

B1: 5F11-45-IgG1.3f (antibody)
heavy: QVQLVQSGAEVKKPGSSVKVSCKASGYTFTDLSMHWVRQAPGQGLEWMGYITPSSGYTAYNQKFKGKTTLTADKSTSTAYMELSSLRSEDTAVYYCARLILQRGAYWGQGTLVTVSSASTKGPSVFPLAPSSKSTSGGTAALGCLVKDYFPEPVTVSWNSGALTSGVHTFPAVLQSSGLYSLSSVVTVPSSSLGTQTYICNVNHKPSNTKVDKRVEPKSCDKTHTCPPCPAPEAEGAPSVFLFPPKPKDTLMISRTPEVTCVVVDVSHEDPEVKFNWYVDGVEVHNAKTKPREEQYNSTYRVVSVLTVLHQDWLNGKEYKCKVSNKALPAPIEKTISKAKGQPREPQVYTLPPSREEMTKNQVSLTCLVKGFYPSDIAVEWESNGQPENNYKTTPPVLDSDGSFFLYSKLTVDKSRWQQGNVFSCSVMHEALHNHYTQKSLSLSPGK
light: DIVLTQSPDSLAVSLGERATINCRASKNVDSYGNSFMHWYQQKPGQPPKLLIYRASNLESGVPDRFSGSGSGTDFTLTISSLQAEDVAVYYCQQSNEDPLTFGQGTKLEIKRTVAAPSVFIFPPSDEQLKSGTASVVCLLNNFYPREAKVQWKVDNALQSGNSQESVTEQDSKDSTYSLSSTLTLSKADYEKHKVYACEVTHQGLSSPVTKSFNRGEC
B2: humanized Y1238 hz41 (hz-HC9 / hz-LC1), IgG1.3f (antibody, V domains shown)
VH: QVQLVQSGAEVVKPGASVKVSCKASGYAFTNYLIEWVRQRPGQGLEWMGVINPGSGGTNYNEKFKGRVTLTADKSSSTAYMQLSRLRSDDTAVYFCARSQLGRRFDYWGQGTTVTVSS
VL: DIQMTQSPSSLSASVGDRVTITCKASQDVRTGVAWYQQKPGKAPKLLIYSASYRNTGVPSRFSGSGSGTDFTFTISSLQPEDIATYYCQQHYSPPYTFGGGTKVEIK
notes: IgG1.3f heavy constant, common CL; expression supernatant; also called Sup 41
B3: humanized Y1238 hz43 (hz-HC9 / hz-LC3), IgG1.3f (antibody, V domains shown)
VH: QVQLVQSGAEVVKPGASVKVSCKASGYAFTNYLIEWVRQRPGQGLEWMGVINPGSGGTNYNEKFKGRVTLTADKSSSTAYMQLSRLRSDDTAVYFCARSQLGRRFDYWGQGTTVTVSS
VL: DIQMTQSPSSLSASVGDRVTITCKASQDVRTGVAWYQQKPGQSPKLLIYSASYRNTGVPSRFSGSRSGTDFTFTISSLQPEDIAVYYCQQHYSPPYTFGGGTKVEIK
notes: IgG1.3f heavy constant, common CL; expression supernatant; also called Sup 43
B4: humanized Y1238 hz55 (hz-HC11 / hz-LC5), IgG1.3f (antibody, V domains shown)
VH: QVQLVQSGAEVKKPGASVKVSCKASGYAFTNYLIEWVRQRPGQGLEWMGVINPGSGGTNYNEKFKGRVTMTRDKSSSTAYMELSRLRSDDTAVYFCARSQLGRRFDYWGQGTLVTVSS
VL: DIQMTQSPSSLSASVGDRVTITCKASQDVRTGVAWYQQKPGQAPKLLIYSASYRNTGVPSRFSGSRSGTDFTFTISSLQPEDIAVYYCQQHYSPPYTFGGGTKVEIK
notes: IgG1.3f heavy constant, common CL; expression supernatant; also called Sup 55
B5: humanized Y1238 hz51 (hz-HC11 / hz-LC1), IgG1.3f (antibody, V domains shown)
VH: QVQLVQSGAEVKKPGASVKVSCKASGYAFTNYLIEWVRQRPGQGLEWMGVINPGSGGTNYNEKFKGRVTMTRDKSSSTAYMELSRLRSDDTAVYFCARSQLGRRFDYWGQGTLVTVSS
VL: DIQMTQSPSSLSASVGDRVTITCKASQDVRTGVAWYQQKPGKAPKLLIYSASYRNTGVPSRFSGSGSGTDFTFTISSLQPEDIATYYCQQHYSPPYTFGGGTKVEIK
notes: IgG1.3f heavy constant, common CL; expression supernatant; also called Sup 51
B6: humanized Y1238 hz42 (hz-HC9 / hz-LC2), IgG1.3f (antibody, V domains shown)
VH: QVQLVQSGAEVVKPGASVKVSCKASGYAFTNYLIEWVRQRPGQGLEWMGVINPGSGGTNYNEKFKGRVTLTADKSSSTAYMQLSRLRSDDTAVYFCARSQLGRRFDYWGQGTTVTVSS
VL: DIQMTQSPSSLSASVGDRVTITCKASQDVRTGVAWYQQKPGKAPKLLIYSASYRNTGVPSRFSGSRSGTDFTFTISSLQPEDIATYYCQQHYSPPYTFGGGTKVEIK
notes: IgG1.3f heavy constant, common CL; expression supernatant; also called Sup 42
B7: humanized Y1238 hz50 (hz-HC10 / hz-LC5), IgG1.3f (antibody, V domains shown)
VH: QVQLVQSGAEVKKPGASVKVSCKASGYAFTNYLIEWVRQRPGQGLEWMGVINPGSGGTNYNEKFKGRVTMTRDKSISTAYMELSRLRSDDTAVYYCARSQLGRRFDYWGQGTLVTVSS
VL: DIQMTQSPSSLSASVGDRVTITCKASQDVRTGVAWYQQKPGQAPKLLIYSASYRNTGVPSRFSGSRSGTDFTFTISSLQPEDIAVYYCQQHYSPPYTFGGGTKVEIK
notes: IgG1.3f heavy constant, common CL; expression supernatant; also called Sup 50
B8: humanized Y1238 hz46 (hz-HC10 / hz-LC1), IgG1.3f (antibody, V domains shown)
VH: QVQLVQSGAEVKKPGASVKVSCKASGYAFTNYLIEWVRQRPGQGLEWMGVINPGSGGTNYNEKFKGRVTMTRDKSISTAYMELSRLRSDDTAVYYCARSQLGRRFDYWGQGTLVTVSS
VL: DIQMTQSPSSLSASVGDRVTITCKASQDVRTGVAWYQQKPGKAPKLLIYSASYRNTGVPSRFSGSGSGTDFTFTISSLQPEDIATYYCQQHYSPPYTFGGGTKVEIK
notes: IgG1.3f heavy constant, common CL; expression supernatant; also called Sup 46
B9: humanized Y1238 hz52 (hz-HC11 / hz-LC2), IgG1.3f (antibody, V domains shown)
VH: QVQLVQSGAEVKKPGASVKVSCKASGYAFTNYLIEWVRQRPGQGLEWMGVINPGSGGTNYNEKFKGRVTMTRDKSSSTAYMELSRLRSDDTAVYFCARSQLGRRFDYWGQGTLVTVSS
VL: DIQMTQSPSSLSASVGDRVTITCKASQDVRTGVAWYQQKPGKAPKLLIYSASYRNTGVPSRFSGSRSGTDFTFTISSLQPEDIATYYCQQHYSPPYTFGGGTKVEIK
notes: IgG1.3f heavy constant, common CL; expression supernatant; also called Sup 52
B10: humanized Y1238 hz49 (hz-HC10 / hz-LC4), IgG1.3f (antibody, V domains shown)
VH: QVQLVQSGAEVKKPGASVKVSCKASGYAFTNYLIEWVRQRPGQGLEWMGVINPGSGGTNYNEKFKGRVTMTRDKSISTAYMELSRLRSDDTAVYYCARSQLGRRFDYWGQGTLVTVSS
VL: DIQMTQSPSSLSASVGDRVTITCKASQDVRTGVAWYQQKPGQSPKLLIYSASYRNTGVPSRFSGSRSGTDFTFTISSLQAEDIAVYYCQQHYSPPYTFGGGTKVEIK
notes: IgG1.3f heavy constant, common CL; expression supernatant; also called Sup 49
B11: humanized Y1238 hz44 (hz-HC9 / hz-LC4), IgG1.3f (antibody, V domains shown)
VH: QVQLVQSGAEVVKPGASVKVSCKASGYAFTNYLIEWVRQRPGQGLEWMGVINPGSGGTNYNEKFKGRVTLTADKSSSTAYMQLSRLRSDDTAVYFCARSQLGRRFDYWGQGTTVTVSS
VL: DIQMTQSPSSLSASVGDRVTITCKASQDVRTGVAWYQQKPGQSPKLLIYSASYRNTGVPSRFSGSRSGTDFTFTISSLQAEDIAVYYCQQHYSPPYTFGGGTKVEIK
notes: IgG1.3f heavy constant, common CL; expression supernatant; also called Sup 44
B12: humanized Y1238 hz54 (hz-HC11 / hz-LC4), IgG1.3f (antibody, V domains shown)
VH: QVQLVQSGAEVKKPGASVKVSCKASGYAFTNYLIEWVRQRPGQGLEWMGVINPGSGGTNYNEKFKGRVTMTRDKSSSTAYMELSRLRSDDTAVYFCARSQLGRRFDYWGQGTLVTVSS
VL: DIQMTQSPSSLSASVGDRVTITCKASQDVRTGVAWYQQKPGQSPKLLIYSASYRNTGVPSRFSGSRSGTDFTFTISSLQAEDIAVYYCQQHYSPPYTFGGGTKVEIK
notes: IgG1.3f heavy constant, common CL; expression supernatant; also called Sup 54
B13: humanized Y1238 hz47 (hz-HC10 / hz-LC2), IgG1.3f (antibody, V domains shown)
VH: QVQLVQSGAEVKKPGASVKVSCKASGYAFTNYLIEWVRQRPGQGLEWMGVINPGSGGTNYNEKFKGRVTMTRDKSISTAYMELSRLRSDDTAVYYCARSQLGRRFDYWGQGTLVTVSS
VL: DIQMTQSPSSLSASVGDRVTITCKASQDVRTGVAWYQQKPGKAPKLLIYSASYRNTGVPSRFSGSRSGTDFTFTISSLQPEDIATYYCQQHYSPPYTFGGGTKVEIK
notes: IgG1.3f heavy constant, common CL; expression supernatant; also called Sup 47
B14: humanized Y1238 hz45 (hz-HC9 / hz-LC5), IgG1.3f (antibody, V domains shown)
VH: QVQLVQSGAEVVKPGASVKVSCKASGYAFTNYLIEWVRQRPGQGLEWMGVINPGSGGTNYNEKFKGRVTLTADKSSSTAYMQLSRLRSDDTAVYFCARSQLGRRFDYWGQGTTVTVSS
VL: DIQMTQSPSSLSASVGDRVTITCKASQDVRTGVAWYQQKPGQAPKLLIYSASYRNTGVPSRFSGSRSGTDFTFTISSLQPEDIAVYYCQQHYSPPYTFGGGTKVEIK
notes: IgG1.3f heavy constant, common CL; expression supernatant; also called Sup 45
B15: humanized Y1238 hz48 (hz-HC10 / hz-LC3), IgG1.3f (antibody, V domains shown)
VH: QVQLVQSGAEVKKPGASVKVSCKASGYAFTNYLIEWVRQRPGQGLEWMGVINPGSGGTNYNEKFKGRVTMTRDKSISTAYMELSRLRSDDTAVYYCARSQLGRRFDYWGQGTLVTVSS
VL: DIQMTQSPSSLSASVGDRVTITCKASQDVRTGVAWYQQKPGQSPKLLIYSASYRNTGVPSRFSGSRSGTDFTFTISSLQPEDIAVYYCQQHYSPPYTFGGGTKVEIK
notes: IgG1.3f heavy constant, common CL; expression supernatant; also called Sup 48
B16: humanized Y1238 hz53 (hz-HC11 / hz-LC3), IgG1.3f (antibody, V domains shown)
VH: QVQLVQSGAEVKKPGASVKVSCKASGYAFTNYLIEWVRQRPGQGLEWMGVINPGSGGTNYNEKFKGRVTMTRDKSSSTAYMELSRLRSDDTAVYFCARSQLGRRFDYWGQGTLVTVSS
VL: DIQMTQSPSSLSASVGDRVTITCKASQDVRTGVAWYQQKPGQSPKLLIYSASYRNTGVPSRFSGSRSGTDFTFTISSLQPEDIAVYYCQQHYSPPYTFGGGTKVEIK
notes: IgG1.3f heavy constant, common CL; expression supernatant; also called Sup 53

How the values were obtained:
human-CD40 monomer [1] = biological target: T1, human-CD40 monomer (human, UniProt P25942 21-193, limits assumed); assay: SPR, Ab captured on protein A, CD40 monomer analyte
T1 construct: also called hCD40-monomer; human-CD40-monomer protein

human-CD40 monomer [2] = biological target: T1, human-CD40 monomer; assay: SPR 2 pt screen, Ab on protein A
Procedure: The VH sequences were formatted in the context of an IgG1.3f isotype. The Vκ sequences were formatted as a full light chain with a common CL sequence. All 55 combinations of these humanized HC and LC constructs, as well as the chimeric Y1238 molecule were expressed as 3 ml supernatants for binding analysis by SPR. Each of the 56 supernatants, as well as a purified Y1238-chimeric IgG1 antibody, was captured on a protein A sensor chip and tested for binding to two concentrations (i.e., 200 nM and 1000 nM) of hCD40-monomer using BIAcore™ SPR in a screening assay. All antibodies, except for those containing hz-HC3, captured at high levels (>300 RU) using a 100-fold dilution of the expression supernatant, indicating a high antibody titer in the supernatant except for the hz-HC3 samples. The kinetic data for the two concentrations of hCD40-monomer were fit to a 1:1 Langmuir model, to yield estimates of the kinetic and affinity values for these interactions, and for comparison of the different molecules. […] Also, for a given heavy chain, the antibodies with light chains hz-LC1 or hz-LC2 had higher CD40 affinity than those with hz-LC3, hz-LC4 or hz-LC5.

T1 sequence (P25942 21-193 limits assumed): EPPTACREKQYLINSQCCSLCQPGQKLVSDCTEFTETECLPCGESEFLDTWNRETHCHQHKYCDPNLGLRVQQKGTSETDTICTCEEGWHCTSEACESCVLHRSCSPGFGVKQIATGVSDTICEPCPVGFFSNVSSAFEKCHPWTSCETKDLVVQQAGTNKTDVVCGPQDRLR

| Binder | Kd (human-CD40 monomer [1]) | koff (human-CD40 monomer [1]) | kon (human-CD40 monomer [1]) | Kd (human-CD40 monomer [2]) | koff (human-CD40 monomer [2]) | kon (human-CD40 monomer [2]) |
| --- | --- | --- | --- | --- | --- | --- |
| B1 | 1.6 nM | 0.00013 s⁻¹ | 82000 M⁻¹ s⁻¹ | – | – | – |
| B2 | – | – | – | 4.4 nM | 0.00017 s⁻¹ | 38000 M⁻¹ s⁻¹ |
| B3 | – | – | – | 7.6 nM | 0.00029 s⁻¹ | 39000 M⁻¹ s⁻¹ |
| B4 | – | – | – | 15 nM | 0.00056 s⁻¹ | 37000 M⁻¹ s⁻¹ |
| B5 | – | – | – | 6.7 nM | 0.00025 s⁻¹ | 37000 M⁻¹ s⁻¹ |
| B6 | – | – | – | 5.4 nM | 0.0002 s⁻¹ | 36000 M⁻¹ s⁻¹ |
| B7 | – | – | – | 16 nM | 0.00061 s⁻¹ | 39000 M⁻¹ s⁻¹ |
| B8 | – | – | – | 5.1 nM | 0.0002 s⁻¹ | 39000 M⁻¹ s⁻¹ |
| B9 | – | – | – | 6.5 nM | 0.00023 s⁻¹ | 35000 M⁻¹ s⁻¹ |
| B10 | – | – | – | 12 nM | 0.00048 s⁻¹ | 39000 M⁻¹ s⁻¹ |
| B11 | – | – | – | 8.5 nM | 0.00033 s⁻¹ | 39000 M⁻¹ s⁻¹ |
| B12 | – | – | – | 15 nM | 0.00056 s⁻¹ | 38000 M⁻¹ s⁻¹ |
| B13 | – | – | – | 8.8 nM | 0.00032 s⁻¹ | 36000 M⁻¹ s⁻¹ |
| B14 | – | – | – | 9.6 nM | 0.00038 s⁻¹ | 39000 M⁻¹ s⁻¹ |
| B15 | – | – | – | 14 nM | 0.00055 s⁻¹ | 39000 M⁻¹ s⁻¹ |
| B16 | – | – | – | 18 nM | 0.00067 s⁻¹ | 37000 M⁻¹ s⁻¹ |
